From patent US20220372137A1 (OXFORD BIOTHERAPEUTICS, published 2022)

T1: human SLAMF6 expressed on the cell surface (Raji cells, human PBMCs, T cells) (human, UniProt Q96DU3 22-332)
T1 sequence: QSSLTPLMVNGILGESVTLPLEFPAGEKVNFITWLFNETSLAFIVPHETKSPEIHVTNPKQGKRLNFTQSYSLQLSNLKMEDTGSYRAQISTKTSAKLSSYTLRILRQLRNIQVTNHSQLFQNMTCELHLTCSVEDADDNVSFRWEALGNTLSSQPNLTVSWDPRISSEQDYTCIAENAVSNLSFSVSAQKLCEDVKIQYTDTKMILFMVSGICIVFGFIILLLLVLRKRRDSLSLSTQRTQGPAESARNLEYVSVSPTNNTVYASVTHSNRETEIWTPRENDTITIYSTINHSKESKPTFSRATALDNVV

T2: Antigen flowed over the chip in the Biacore experiment (SLAMF6, construct not stated) (Homo sapiens (Human), UniProt Q96DU3 22-226, limits assumed)
T2 sequence: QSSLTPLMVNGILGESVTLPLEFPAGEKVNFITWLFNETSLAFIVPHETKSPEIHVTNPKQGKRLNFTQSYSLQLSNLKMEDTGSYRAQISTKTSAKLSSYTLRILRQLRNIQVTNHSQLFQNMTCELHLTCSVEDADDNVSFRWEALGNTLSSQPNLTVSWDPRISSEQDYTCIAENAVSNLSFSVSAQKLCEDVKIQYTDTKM

B1: humanised antibody Hu_1B3 (antibody, human IgG1, kappa, L234A L235A, V domains shown)
VH: QVQLVQSGAEVKKPGASVKVSCKASGYAFTNYLIEWVRQAPGQGLEWIGVINPGSGGTNYNEKFQGRVTLTADKSISTAYMELSRLRSDDTAVYYCARRGWDYFDYWGQGTLVTVSS
VL: DIQLTQSPSSLSASVGDRVTITCQASQDVSYIYWYQQKPGKAPKPWIYRTSNLATGVPSRFSGSGSGTDYTFTISSLQPEDIATYYCQQWDNNPYTFGQGTKLEIKR
notes: It was captured or detected with anti-human IgG and compared with a human IgG1 isotype control; also called humanised 1B3 antibody; humanized Hu_1B3 antibody
B2: parental murine 1B3 antibody (antibody, V domains shown)
VH: QVQLKQSGAELVRPGTSVKVSCKASGYAFTNYLIEWVKQRPGQGLEWIGVINPGSGGTNYNEKFKDKATLTADKSSNTAYMQLSSLTSDDSAVYFCARRGWDYFDYWGQGTTLTVSS
VL: QIVLTQSPALMSTSPGEKVTMTCSASSSVSYIYWFQQKPGSSPKPWIYRTSNLASGVPARFSGSGSGTSYSLTISSMEAEDAATYYCQQWDNNPYTFGGGTKLEIK
notes: also called antibody 1B3; mouse 1B3

Key:
[1] = molecular target: T1, human SLAMF6 expressed on the cell …; assay: cell-based or functional assay
[2] = molecular target: T1, human SLAMF6 expressed on the cell …; assay: flow cytometry on human PBMCs pre-blocked with 300 nM SLAMF6 ECD-mIgG2a Fc fusion protein, goat anti-human IgG-RPE secondary antibody
Description: Cryopreserved human PBMCs were thawed and washed once by suspension in FACS buffer (DPBS with 2% FCS) followed by centrifugation for 5 minutes at 1200 rpm to pellet cells and discarding of supernatant (same method used for subsequent washes). The cells were dispensed into a 96-well assay plate at 100,000 cells per well in FACS buffer before being washed once more. Cells were then blocked with SLAMF6 ECD-mIgG2a Fc fusion protein at 100 nM or 300 nM for 1 hr for SLAMF6 receptor blocking in 100 μl FACS buffer on ice for 1 hour before being washed. Humanized Hu_1B3 antibody or human IgG1 Isotype control at top concentration of 10 nM and a titration by serial dilution of 1 in 3, was then added to the blocked PBMCs and the cells were incubated for 1 hr on ice before being washed twice. The secondary antibody, goat anti-human-IgG-RPE (Southern Biotech, Ref: 2040-05) at a concentration of 1 μg/mL in FACS buffer, was then applied to the treated cells for 30 minutes on ice. […] Mean fluorescence intensity for the secondary antibody was determined for each sample using an Attune NxT Flow Cytometer (ThermoFischer Scientific) in a 96-well plate format according to industry standard protocols, and the raw data was analyzed using FlowJo analysis software.

[3] = molecular target: T2, Antigen flowed over the chip in the …; assay: SPR, Biacore T-200 at 25 °C; antibody captured on goat anti-human IgG, antigen flowed over
Description: Flow cells 2, 3 and 4 of the CM5 chip were coated with maximum amounts 500 RU of goat anti-human IgG. Test Ab were captured on flow cells 2, 3 and 4. Flow cell 1 was kept blank and used for reference subtraction. Antigen was flowed over the chip. Binding of antigen to the antibodies was monitored in real time. From the observed kₒₙ and koff, KD was determined.

[4] = molecular target: T1, human SLAMF6 expressed on the cell …; assay: flow cytometry on SLAMF6-expressing Raji cells, goat anti-mouse secondary antibody
Description: […] Raji cells were placed in each well of a 96 well plate and washed 1× with FACS buffer (DPBS, 2% FBS). The cells were pelleted by spinning for 5 min at 1200 rpm. The pellet was washed 1× with FACS buffer (DPBS, 2% FBS) and again pelleted by spinning for 5 min at 1200 rpm and resuspended in FACS buffer. The test antibody were diluted to 30 nM/l in FACS buffer and increasing amounts as shown in FIG. 4 added to each well which was incubated for 30 min on ice. The cells were then washed 1× with FACS buffer (DPBS, 2% FBS) and pelleted, washed and resuspended in FACS buffer. Secondary goat-anti-mouse antibody was diluted to 1 μg·ml and 100 μl added to each well the plate was incubated for 30 min on ice then washed 1× with FACS buffer (DPBS, 2% FBS). The cells were pelleted and resuspended in 200 ul FACS buffer. Samples were read using the Guava Easycyte Plus HT flow cytometer and results analysed using the Guava Cytosoft software suite.

| Binder | Granzyme B release from activated T cells (plate-coated antibody plus OKT3, ELISA), EC50 [1] [µg/mL] | upregulation of intracellular perforin in CD8+ T cells (flow cytometry), EC50 [1] [µg/mL] | EC50 (read off the curve) [2] [nM] | Ka [3] [M⁻¹] | Kd [3] [nM] | koff [3] [s⁻¹] | kon [3] [M⁻¹ s⁻¹] | EC50 (read off the curve) [4] [nM] |
| --- | --- | --- | --- | --- | --- | --- | --- | --- |
| B1 | 0.51 | 0.44 | ~0.4 | 5.8e+08 | 1.72 | 0.000932 | 541000 |  |
| B2 |  |  |  |  |  |  |  | ~0.2 |
